Where “and” joins values, the source holds several entries; their conditions need not be identical. Identical values can stand only once. Like-named read-outs stand apart in the source and are kept apart here.

Data set [1] can be described thus: Melting temperature of FBF-2 proteins. The data set is classed as physicochemical. The procedure: Mutants of FBF-2 RBD + CT: Y479A (5′-[…]), L610A (5′-[…]), and Loop6A (E592A, D594A, E597A, E599A, E604A, E605A; 5′-[…]) were generated by site-directed mutagenesis with the primers indicated. Plasmid sequences were verified by DNA sequencing (Azenta Life Sciences). Protein variants were expressed and purified like wild type proteins. Melting temperatures of wild type and mutant proteins were assessed by differential scanning […]. Reaction mixtures (total volume of 20 μl) contained ~0.3 mg/ml FBF-2 proteins and Sypro Orange dye (1:1000 dilution) (Sigma). Fluorescent intensity was collected from 25 °C to 95 °C (3 °C increment/min) with a real time PCR instrument (Applied Biosystems™ QuantStudio 7 Flex System) using excitation and emission wavelengths of 470 nm and 586 nm, respectively. Protein Thermal Shift^TM software (Applied Biosystems, version 1.4) was used to analyze protein melting curves and calculate melting temperatures (Tm).

The target in data set [2] is gld-1 FBEa RNA. The experiment in a line: Electrophoretic mobility shift assay (EMSA), RNA binding. More on the design: species or system C. elegans. Here is the method: A 3′-Cy5-labeled synthetic RNA was ordered from IDT (gld-1 FBEa, 5′-[…]-3′). The FBF-2 proteins were serially diluted 2-fold from the highest concentration of 10 µM in the buffer used for gel filtration (20 mM HEPES pH 7.4, 150 mM NaCl, and 0.5 mM TCEP). 10 µl of the serially diluted protein samples were mixed with 10 µl RNA (10 nM) in a 2× buffer of 10 mM HEPES pH 7.4, 0.01% (v/v) Tween 20, 0.1 mg/ml BSA, 0.1 mg/ml yeast tRNA, and 2 mM DTT. For experiments in the presence of LST-1, LST-1 proteins at constant concentration were preincubated with FBF-2 at 4 °C for 2 h. The LST-1 concentrations were chosen based on their Kd’s for interaction with FBF-2. The final FBF-2 concentrations ranged from 5000 nM to 0.6 nM, and the LST-1 A or B concentrations were constant at 150 μM or 50 μM, respectively. The protein-RNA mixtures were incubated at 4 °C overnight. The samples were resolved on 10% TBE polyacrylamide gels run at constant voltage (100 V) with 1× TBE buffer at room temperature for 35 min. The gels were scanned and visualized with a Typhoon FLA 9500 imager using the Cy5 channel (excitation wavelength 635 nm). Band intensities were quantified with ImageQuant 5.2 (Cytiva). The data were fit with GraphPad Prism (version 9.2.0) using nonlinear regression with a one-site specific binding model. Mean Kd’s and standard error of the mean (SEM) from three or more technical replicates are reported (Supplementary Table 4). Full scan images for the replicates shown in the main figures and gel images for all replicates are included in a source data file.

In the next data set the test system is LST-1. To be noted: Y479A mutation; cited from earlier work.
Data set [3] deals with gld-1 FBEa RNA. The data set is described as follows: Surface plasmon resonance, RNA-binding kinetics. More on the design: species or system C. elegans. Here is the method:
Kinetics of FBF-2 binding to the gld-1 FBEa RNA were measured using a 2-channel OpenSPR instrument (Nicoya). A 3′-biotin-labeled synthetic RNA was ordered from Horizon Discovery (gld-1 FBEa, 5′-AUCAUGUGCCAUACA-biotin-3′). The 3′-biotinylated RNA was immobilized on streptavidin-treated biotin sensor chips (Nicoya). All experiments were performed at 20 °C with a buffer of 20 mM HEPES, pH 7.4, 150 mM NaCl, and 2 mM DTT. SPR data were collected using OpenSPR (Nicoya, version 4.3). FBF-2 proteins were injected with a flow rate of 20 µl/min. Data were obtained at five different protein concentrations (25, 50, 100, 200, and 400 nM for wild type RBD + CT; 12.5, 25, 50, 100, and 200 nM for RBD + CT mutants and wild type RBD). Sensor chips were regenerated using 0.05% or 0.1% (v/v) SDS. For each experiment, five binding curves were simultaneously fit using a 1:1 binding model with the TraceDrawer software (Ridgeview Instruments, version 1.9.1). Mean values and standard deviation were calculated from two technical replicates. Despite our efforts, the fit of the binding curves for the association phase of FBF-2 RBD and FBF-2 RBD + CT mutants is poorer than the fit for FBF-2 RBD + CT WT. The appearance of the curves is consistent with the derived kon and koff values, and importantly, the curve fit for the dissociation phase is better.

Where [4] appears, read: mean ± SD, two technical replicates, 20 °C, pH 7.4, 1:1 model.

B1: FBF-2 RBD + CT Y479A: FBF-2 RBD + CT mutated in the R7-R8 loop (Y479A) (protein, UniProt Q09312 164-632, looked up, variant Y479A)
chain: SNNVLPTWSLDSNGEMRSRLSLSEVLDSGDLMKFAVDKTGCQFLEKAVKGSLTSYQKFQLFEQVIGRKDDFLKLSTNIFGNYLVQSVIGISLATNDDGYTKRQEKLKNFISSQMTDMCLDKFACRVIQSSLQNMDLSLACKLVQALPRDARLIAICVDQNANHVIQKVVAVIPLKNWEFIVDFVATPEHLRQICSDKYGCRVVQTIIEKLTADSMNVDLTSAAQNLRERALQRLMTSVTNRCQELATNEYANYIIQHIVSNDDLAVYRECIIEKCLMRNLLSLSQEKFASHVVEKAFLHAPLELLAEMMDEIFDGAIPHPDTGKDALDIMMFHQFGNYVVQCMLTICCDAVSGRRQTKEGGYDHAISFQDWLKKLHSRVTKERHRLSRFSSGKKMIETLANLRSTHPIYELQSSGHDSFKTDYFSTASEHDGPELEKNGIEEGSLMLEPRSNKSSVSVKFSSSGSHGDD
Broadly, the Kd is the concentration at which binding is half-saturated. For orientation: koff means the rate constant with which the complex falls apart. As usually defined, the kon is the rate constant with which the complex forms. Lower therefore signals slower complex formation. For the molecule B1, in data set [1] (in words, vs RBD alone or vs RBD + CT), the thermal stability result is reported as “decreased the thermal stability”. Also, the Tm in data set [1] (mean ± SD, three technical replicates, ~0.3 mg/ml protein, Sypro Orange, 25 to 95 °C, fluorescence) is 35.25 ± 0.05 °C; in data set [1] (replicate 1), 35.30 °C; in data set [1] (replicate 2), 35.30 °C; in data set [1] (replicate 3), 35.16 °C. In addition, the Kd was 0.036 µM and 0.039 µM and 0.047 µM at gld-1 FBEa RNA [2]; 0.062 µM on gld-1 FBEa RNA [2] (no LST-1, mean ± SEM of independent technical replicates (n = 3-5), 4 °C overnight, pH 7.4, Cy5-RNA 5′-AUCAUGUGCCAUAC-3′); 0.075 µM at gld-1 FBEa RNA [2] (no LST-1, replicate 1); 0.064 µM at gld-1 FBEa RNA [2] (no LST-1, replicate 2); 0.048 µM at gld-1 FBEa RNA [2] (no LST-1, replicate 3); 0.041 ± 0.006 µM at gld-1 FBEa RNA [2] (pH 7.4). In addition, the Kd stood at 0.0129 ± 0.0064 µM at gld-1 FBEa RNA [3] (derived from on/off rates, mean ± SD, two technical replicates); 0.0174 µM at gld-1 FBEa RNA [3] (replicate 1); 0.0083 µM at gld-1 FBEa RNA [3] (replicate 2). In addition, the “interaction with LST-1” value with LST-1 was “disrupts interaction between FBF-2 and LST-1”. Also, the koff is 1.18 ± 0.11 x10^-3 s^-1 in the data set with gld-1 FBEa RNA [3] (setting [4]); 0.00125 s⁻¹ in the data set on gld-1 FBEa RNA [3] (replicate 1, read-out: koff); 0.0011 s⁻¹ in the data set on gld-1 FBEa RNA [3] (replicate 2, read-out: koff). Moreover, the kon in the data set on gld-1 FBEa RNA [3] (setting [4]) was 10.2 ± 4.3 x10^4 M^-1 s^-1; with gld-1 FBEa RNA [3] (replicate 1), 71900 M⁻¹ s⁻¹; in the data set with gld-1 FBEa RNA [3] (replicate 2), 133000 M⁻¹ s⁻¹.

(Values after article PMC10641069, “Intra- and inter-molecular regulation by intrinsically-disordered regions governs PUF protein RNA binding” (Nature Communications, 2023).)
